Measurements published in paper PMC12421854.

Columns and labels:
[1] = target: ForJ (Streptomyces formicae); assay: mass photometry; ReFeyn mass photometry of purified ForJ reduced with TCEP; monomers to dimer
[2] = target: ForJ (Streptomyces formicae); assay: non-reducing SDS-PAGE; purified ForJ exposed to increasing DTT; no beta-mercaptoethanol and no boiling before loading; monomers and dimers
[3] = target: ForJ (Streptomyces formicae); assay: non-reducing SDS-PAGE; purified ForJ exposed to increasing H2O2; no beta-mercaptoethanol and no boiling before loading; dimers to dimer of dimers
[4] = target: ForJ (Streptomyces formicae); assay: mass photometry; ReFeyn mass photometry of purified ForJ without reducing agent (oxidized); 38 kDa and 76 kDa states both present; dimers to dimer of dimers

stoichiometry N [1]: 2
stoichiometry N [2]: 2
stoichiometry N [3]: 4
stoichiometry N [4]: 4
Substance: ForJ (natural protein)
